Literature values in paper PMC4676407.

Target: Akt kinase domain kinase domain (Homo sapiens) (UniProt P31749)

Kd: > 5 mM
Substance: Akt C-terminal peptide C-terminus (from UniProt P31749)
